Measurements: CN117677637A (PETEMEDI LTD, dated 2024)

Experiments:
[1] = target: T1, 犬CD20 (canine CD20, B淋巴细胞抗原CD20, full length, wild type) (canine (dog), UniProt Q3C2E2 1-297); assay: flow cytometry on MDCK cells expressing wild-type canine CD20 (positive control of epitope mapping)
T1 construct: Stably expressed from full-length cDNA on MDCK II (or HEK293) cells for flow cytometry and ADCC; naturally expressed on CLBL-1 canine lymphoma cells in the CDC assay; also called cCD20; MS4A1
T1 chain: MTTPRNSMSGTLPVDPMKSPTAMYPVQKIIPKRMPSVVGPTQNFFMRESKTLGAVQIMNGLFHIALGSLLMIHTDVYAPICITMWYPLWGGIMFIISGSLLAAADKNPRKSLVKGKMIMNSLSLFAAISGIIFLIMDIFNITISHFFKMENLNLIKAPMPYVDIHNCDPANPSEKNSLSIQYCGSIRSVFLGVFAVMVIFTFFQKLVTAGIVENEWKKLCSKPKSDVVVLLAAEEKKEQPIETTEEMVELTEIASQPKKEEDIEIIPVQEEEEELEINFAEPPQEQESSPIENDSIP

[2] = target: T1, 犬CD20 (canine CD20, B淋巴细胞抗原CD20, full …); assay: flow cytometry, 10 ug/ml antibody on MDCK II cells expressing canine CD20 (Fig 3A); equal to 4E1-7
[3] = target: T1, 犬CD20 (canine CD20, B淋巴细胞抗原CD20, full …); assay: flow cytometry on cells expressing canine CD20, against PMX003 (Fig 3B); unchanged
[4] = target: T1, 犬CD20 (canine CD20, B淋巴细胞抗原CD20, full …); assay: flow cytometry on cells expressing canine CD20, against PMX003 (Fig 3B); slight decrease

B1: PMX003 (antibody, V domains shown)
VH: EVQLVESGGDLVKPGGSLRLSCVASGITFSRYHMSWVRQAPGKGLQWVAYINSGGSSTSYPDAVKGRFTISRDNAKNTLYLQMDSLRAEDTALYYCTTFDYWGQGTLVTVSS
VL: SYVLTQLPSKNVTLKQPAHITCGGDNIGSKSVHWYQQKLGQAPVLIIYYDSRRPTGIPERFSGANSGNTATLTISGALAEDEADYYCQVWDSSANVFGGGTHLTVL
notes: Fully canine mAb; Tested in native form and in an a-fucosylated form (made in Fut8 knockout CHO cells) in CDC/ADCC; also called PMX003 mAb
- binding result [1]: binds

B2: PMX002 (antibody, V domains shown)
VH: EVQLVESGGDLVKPGGSLRLSCVASGIIFSNYHMSWVRQVPGKGLQWVAYINSGGSTINYADGVKGRFTISRDNAKNSLYLQMNSLRGEDTAVYYCTTYDSWGQGTLVTVSS
VL: SYVLTQLPSKNVTLKQPAHITCGGDNIGSKSVHWYQQKLGQAPVLIIYYDSSRPTGIPERFSGANSGNTATLTISGALAEDEADYYCQVWDSSVNVFGGGTHLTVL
notes: Fully canine mAb; also called PMX002 mAb
- binding result [2]: binds

B3: PMX115 (antibody, V domains shown)
VH: EMQLVESGGALVKPGGSLRLSCVASGFTFRRYHMSWVRQAPGQGLQWVAYIDSDGSPTSYGDSVKGRFTISRDNAKNTLFLQMNSLRVDDTAVYYCTTLDYWGRGTLVTVSS
VL: SYVLTQVPSKSVTLKQPAHITCGGDNIGGKSVHWYQQKLGQAPLLIIYYDTRRPTGIPERFSGANSGNTATLTISRALAEDEADYYCQVWDSSGNVFGGGTHLTVI
notes: also called PMX115 mAb
- binding result [1]: binds

B4: PMX008 (antibody, V domains shown)
VH: EVQLVESGGDLVKPGGSLRLSCVASGITFSRYHMSWVRQAPGKGLQWVAYINSGGSSTSYPDAVKGRFTISRDNAKNTLYLQMDSLRAEDTALYYCTTFDYWGQGTLVTVSS
VL: SYVLTQLPSKEVTLKQPAHITCGGDNIGSKSVHWYQQKLGQAPVLIIYYDSRRPTGIPERFSGANSGNTATLTISGALAEDEADYYCQVWDSSANVFGGGTHLTVL
notes: PMX003 heavy chain; Constant regions not restated (PMX003: dog IGGB / dog IGLC5); also called PMX008 mAb; EVT
- binding result [3]: binds

B5: PMX007 (antibody, V domains shown)
VH: EVQLVESGGDLVKPGGSLRLSCVASGITFSRYHMSWVRQAPGKGLQWVAYINSGGSSTSYPDAVKGRFTISRDNAKNTLYLQMDSLRAEDTALYYCTTFDYWGQGTLVTVSS
VL: SYVLTQLPSKAVTLKQPAHITCGGDNIGSKSVHWYQQKLGQAPVLIIYYDSRRPTGIPERFSGANSGNTATLTISGALAEDEADYYCQVWDSSANVFGGGTHLTVL
notes: PMX003 heavy chain; Constant regions not restated (PMX003: dog IGGB / dog IGLC5); also called PMX007 mAb; AVT突变体
- binding result [4]: binds

B6: PMX009 (antibody, V domains shown)
VH: EVQLVESGGDLVKPGGSLRLSCVASGITFSRYHMSWVRQAPGKGLQWVAYINSGGSSTSYPDAVKGRFTISRDNAKNTLYLQMDSLRAEDTALYYCTTFDYWGQGTLVTVSS
VL: SYVLTQLPSKNVALKQPAHITCGGDNIGSKSVHWYQQKLGQAPVLIIYYDSRRPTGIPERFSGANSGNTATLTISGALAEDEADYYCQVWDSSANVFGGGTHLTVL
notes: PMX003 heavy chain; Constant regions not restated (PMX003: dog IGGB / dog IGLC5); also called PMX009 mAb; NVA
- binding result [3]: binds

B7: PMX006 (antibody, V domains shown)
VH: EVQLVESGGDLVKPGGSLRLSCVASGITFSRYHMSWVRQAPGKGLQWVAYINSGGSSTSYPDAVKGRFTISRDNAKNTLYLQMDSLRAEDTALYYCTTFDYWGQGTLVTVSS
VL: SYVLTQLPSKQVTLKQPAHITCGGDNIGSKSVHWYQQKLGQAPVLIIYYDSRRPTGIPERFSGANSGNTATLTISGALAEDEADYYCQVWDSSANVFGGGTHLTVL
notes: PMX003 heavy chain; Constant regions not restated (PMX003: dog IGGB / dog IGLC5); also called PMX006 mAb; QVT突变体
- binding result [4]: binds
